Measurements taken from patent publication US20130210709A1 (ANCHOR THERAPEUTICS, published 2013).
Square brackets hold non-standard residues; d marks the D form. * marks the point of attachment. Palmitoyl = CCCCCCCCCCCCCCCC(=O)*

B1: Compound No. 38 (Pal-MGYQKKLRSMTDKYRL-amide) (peptide)
peptide: Palmitoyl-MGYQKKLRSMTDKYRL-NH2
SMILES: CCCCCCCCCCCCCCCC(=O)N[C@@H](CCSC)C(=O)NCC(=O)N[C@@H](Cc1ccc(O)cc1)C(=O)N[C@@H](CCC(N)=O)C(=O)N[C@@H](CCCCN)C(=O)N[C@@H](CCCCN)C(=O)N[C@@H](CC(C)C)C(=O)N[C@@H](CCCNC(=N)N)C(=O)N[C@@H](CO)C(=O)N[C@@H](CCSC)C(=O)N[C@H](C(=O)N[C@@H](CC(=O)O)C(=O)N[C@@H](CCCCN)C(=O)N[C@@H](Cc1ccc(O)cc1)C(=O)N[C@@H](CCCNC(=N)N)C(=O)N[C@@H](CC(C)C)C(N)=O)[C@@H](C)O
B2: CXCR4 i1 loop compound 132 (peptide)
peptide: Palmitoyl-MGYAKKLRSMTDKYRL-NH2
SMILES: CCCCCCCCCCCCCCCC(=O)N[C@@H](CCSC)C(=O)NCC(=O)N[C@@H](Cc1ccc(O)cc1)C(=O)N[C@@H](C)C(=O)N[C@@H](CCCCN)C(=O)N[C@@H](CCCCN)C(=O)N[C@@H](CC(C)C)C(=O)N[C@@H](CCCNC(=N)N)C(=O)N[C@@H](CO)C(=O)N[C@@H](CCSC)C(=O)N[C@H](C(=O)N[C@@H](CC(=O)O)C(=O)N[C@@H](CCCCN)C(=O)N[C@@H](Cc1ccc(O)cc1)C(=O)N[C@@H](CCCNC(=N)N)C(=O)N[C@@H](CC(C)C)C(N)=O)[C@@H](C)O
B3: CXCR4 i1 loop compound 136 (peptide)
peptide: Palmitoyl-MGYQKKLASMTDKYRL-NH2
SMILES: CCCCCCCCCCCCCCCC(=O)N[C@@H](CCSC)C(=O)NCC(=O)N[C@@H](Cc1ccc(O)cc1)C(=O)N[C@@H](CCC(N)=O)C(=O)N[C@@H](CCCCN)C(=O)N[C@@H](CCCCN)C(=O)N[C@@H](CC(C)C)C(=O)N[C@@H](C)C(=O)N[C@@H](CO)C(=O)N[C@@H](CCSC)C(=O)N[C@H](C(=O)N[C@@H](CC(=O)O)C(=O)N[C@@H](CCCCN)C(=O)N[C@@H](Cc1ccc(O)cc1)C(=O)N[C@@H](CCCNC(=N)N)C(=O)N[C@@H](CC(C)C)C(N)=O)[C@@H](C)O
B4: CXCR4 i1 loop compound 130 (peptide)
peptide: Palmitoyl-MAYQKKLRSMTDKYRL-NH2
SMILES: CCCCCCCCCCCCCCCC(=O)N[C@@H](CCSC)C(=O)N[C@@H](C)C(=O)N[C@@H](Cc1ccc(O)cc1)C(=O)N[C@@H](CCC(N)=O)C(=O)N[C@@H](CCCCN)C(=O)N[C@@H](CCCCN)C(=O)N[C@@H](CC(C)C)C(=O)N[C@@H](CCCNC(=N)N)C(=O)N[C@@H](CO)C(=O)N[C@@H](CCSC)C(=O)N[C@H](C(=O)N[C@@H](CC(=O)O)C(=O)N[C@@H](CCCCN)C(=O)N[C@@H](Cc1ccc(O)cc1)C(=O)N[C@@H](CCCNC(=N)N)C(=O)N[C@@H](CC(C)C)C(N)=O)[C@@H](C)O
B5: CXCR4 i1 loop compound 131 (peptide)
peptide: Palmitoyl-MGAQKKLRSMTDKYRL-NH2
SMILES: CCCCCCCCCCCCCCCC(=O)N[C@@H](CCSC)C(=O)NCC(=O)N[C@@H](C)C(=O)N[C@@H](CCC(N)=O)C(=O)N[C@@H](CCCCN)C(=O)N[C@@H](CCCCN)C(=O)N[C@@H](CC(C)C)C(=O)N[C@@H](CCCNC(=N)N)C(=O)N[C@@H](CO)C(=O)N[C@@H](CCSC)C(=O)N[C@H](C(=O)N[C@@H](CC(=O)O)C(=O)N[C@@H](CCCCN)C(=O)N[C@@H](Cc1ccc(O)cc1)C(=O)N[C@@H](CCCNC(=N)N)C(=O)N[C@@H](CC(C)C)C(N)=O)[C@@H](C)O
B6: CXCR4 i1 loop compound 133 (peptide)
peptide: Palmitoyl-MGYQAKLRSMTDKYRL-NH2
SMILES: CCCCCCCCCCCCCCCC(=O)N[C@@H](CCSC)C(=O)NCC(=O)N[C@@H](Cc1ccc(O)cc1)C(=O)N[C@@H](CCC(N)=O)C(=O)N[C@@H](C)C(=O)N[C@@H](CCCCN)C(=O)N[C@@H](CC(C)C)C(=O)N[C@@H](CCCNC(=N)N)C(=O)N[C@@H](CO)C(=O)N[C@@H](CCSC)C(=O)N[C@H](C(=O)N[C@@H](CC(=O)O)C(=O)N[C@@H](CCCCN)C(=O)N[C@@H](Cc1ccc(O)cc1)C(=O)N[C@@H](CCCNC(=N)N)C(=O)N[C@@H](CC(C)C)C(N)=O)[C@@H](C)O
B7: CXCR4 i1 loop compound 135 (peptide)
peptide: Palmitoyl-MGYQKKARSMTDKYRL-NH2
SMILES: CCCCCCCCCCCCCCCC(=O)N[C@@H](CCSC)C(=O)NCC(=O)N[C@@H](Cc1ccc(O)cc1)C(=O)N[C@@H](CCC(N)=O)C(=O)N[C@@H](CCCCN)C(=O)N[C@@H](CCCCN)C(=O)N[C@@H](C)C(=O)N[C@@H](CCCNC(=N)N)C(=O)N[C@@H](CO)C(=O)N[C@@H](CCSC)C(=O)N[C@H](C(=O)N[C@@H](CC(=O)O)C(=O)N[C@@H](CCCCN)C(=O)N[C@@H](Cc1ccc(O)cc1)C(=O)N[C@@H](CCCNC(=N)N)C(=O)N[C@@H](CC(C)C)C(N)=O)[C@@H](C)O
B8: CXCR4 i1 loop compound 134 (peptide)
peptide: Palmitoyl-MGYQKALRSMTDKYRL-NH2
SMILES: CCCCCCCCCCCCCCCC(=O)N[C@@H](CCSC)C(=O)NCC(=O)N[C@@H](Cc1ccc(O)cc1)C(=O)N[C@@H](CCC(N)=O)C(=O)N[C@@H](CCCCN)C(=O)N[C@@H](C)C(=O)N[C@@H](CC(C)C)C(=O)N[C@@H](CCCNC(=N)N)C(=O)N[C@@H](CO)C(=O)N[C@@H](CCSC)C(=O)N[C@H](C(=O)N[C@@H](CC(=O)O)C(=O)N[C@@H](CCCCN)C(=O)N[C@@H](Cc1ccc(O)cc1)C(=O)N[C@@H](CCCNC(=N)N)C(=O)N[C@@H](CC(C)C)C(N)=O)[C@@H](C)O
B9: CXCR4 i4 loop compound 115 (peptide)
peptide: Palmitoyl-GAKFKTSAQHALTSVSRGSSLK-NH2
SMILES: CCCCCCCCCCCCCCCC(=O)NCC(=O)N[C@@H](C)C(=O)N[C@@H](CCCCN)C(=O)N[C@@H](Cc1ccccc1)C(=O)N[C@@H](CCCCN)C(=O)N[C@H](C(=O)N[C@@H](CO)C(=O)N[C@@H](C)C(=O)N[C@@H](CCC(N)=O)C(=O)N[C@@H](Cc1c[nH]cn1)C(=O)N[C@@H](C)C(=O)N[C@@H](CC(C)C)C(=O)N[C@H](C(=O)N[C@@H](CO)C(=O)N[C@H](C(=O)N[C@@H](CO)C(=O)N[C@@H](CCCNC(=N)N)C(=O)NCC(=O)N[C@@H](CO)C(=O)N[C@@H](CO)C(=O)N[C@@H](CC(C)C)C(=O)N[C@@H](CCCCN)C(N)=O)C(C)C)[C@@H](C)O)[C@@H](C)O
B10: CXCR4 i4 loop compound 114 (peptide)
peptide: Palmitoyl-GAKFKTSAQHALTSVSRGSSLKILSK-NH2
SMILES: CCCCCCCCCCCCCCCC(=O)NCC(=O)N[C@@H](C)C(=O)N[C@@H](CCCCN)C(=O)N[C@@H](Cc1ccccc1)C(=O)N[C@@H](CCCCN)C(=O)N[C@H](C(=O)N[C@@H](CO)C(=O)N[C@@H](C)C(=O)N[C@@H](CCC(N)=O)C(=O)N[C@@H](Cc1c[nH]cn1)C(=O)N[C@@H](C)C(=O)N[C@@H](CC(C)C)C(=O)N[C@H](C(=O)N[C@@H](CO)C(=O)N[C@H](C(=O)N[C@@H](CO)C(=O)N[C@@H](CCCNC(=N)N)C(=O)NCC(=O)N[C@@H](CO)C(=O)N[C@@H](CO)C(=O)N[C@@H](CC(C)C)C(=O)N[C@@H](CCCCN)C(=O)N[C@H](C(=O)N[C@@H](CC(C)C)C(=O)N[C@@H](CO)C(=O)N[C@@H](CCCCN)C(N)=O)[C@@H](C)CC)C(C)C)[C@@H](C)O)[C@@H](C)O
B11: CXCR4 i4 loop compound 116 (peptide)
peptide: Palmitoyl-GAKFKTSAQHALTSVR-NH2
SMILES: CCCCCCCCCCCCCCCC(=O)NCC(=O)N[C@@H](C)C(=O)N[C@@H](CCCCN)C(=O)N[C@@H](Cc1ccccc1)C(=O)N[C@@H](CCCCN)C(=O)N[C@H](C(=O)N[C@@H](CO)C(=O)N[C@@H](C)C(=O)N[C@@H](CCC(N)=O)C(=O)N[C@@H](Cc1c[nH]cn1)C(=O)N[C@@H](C)C(=O)N[C@@H](CC(C)C)C(=O)N[C@H](C(=O)N[C@@H](CO)C(=O)N[C@H](C(=O)N[C@@H](CCCNC(=N)N)C(N)=O)C(C)C)[C@@H](C)O)[C@@H](C)O

What follows are binders tested against T1, CXCR4 receptor (human, UniProt P61073 1-352) (assay: cell-based or functional assay).
T1 sequence (P61073 whole entry): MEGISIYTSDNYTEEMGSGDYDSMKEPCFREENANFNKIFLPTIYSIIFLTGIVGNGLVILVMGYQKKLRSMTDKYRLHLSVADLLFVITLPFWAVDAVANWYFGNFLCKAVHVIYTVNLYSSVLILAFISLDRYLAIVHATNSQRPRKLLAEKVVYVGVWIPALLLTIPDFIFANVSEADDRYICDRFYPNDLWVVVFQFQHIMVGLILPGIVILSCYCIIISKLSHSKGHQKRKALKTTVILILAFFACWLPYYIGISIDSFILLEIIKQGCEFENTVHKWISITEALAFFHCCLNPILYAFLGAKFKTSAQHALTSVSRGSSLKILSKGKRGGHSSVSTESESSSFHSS
For B1, the “AUC (% of), CHTX, SUP B-15, 1.0 uM” value was 32.4%, the “Max (% of), CHTX, SUP B-15, 1.0 uM” value was 49.6% and the “Peak Ratio, CHTX, CEM, 1.0 uM” value was 0.2. For the same binder, the “Peak Ratio, CHTX, SUP B-15, 1.0 uM” value was 0.2.

Biological target: T1, CXCR4 receptor
Test: cell-based or functional assay
Remark: another data set of the same source
Palmitoyl-MGYQKKL[dR]SMTDKYRL-NH2 [CXCR4 i1 loop compound 171] was tested, and the “IC50 (nM), calcium flux, CCRF-CEM” value was 72 nM.
In the case of B2, the “IC50 (nM), calcium flux, CCRF-CEM” value is reported as 213 nM.
With B3 the “IC50 (nM), calcium flux, CCRF-CEM” value was 302 nM.
With Palmitoyl-MGYQKK[dL]RSMTDKYRL-NH2 [CXCR4 i1 loop compound 170] the “IC50 (nM), calcium flux, CCRF-CEM” value was 72 nM.
In the case of B4, the “IC50 (nM), calcium flux, CCRF-CEM” value is reported as 125 nM.
B5 was tested, and the “IC50 (nM), calcium flux, CCRF-CEM” value was 147 nM.
With Palmitoyl-MGYQ[dK]KLRSMTDKYRL-NH2 [CXCR4 i1 loop compound 168] the “IC50 (nM), calcium flux, CCRF-CEM” value was 119 nM.
With Palmitoyl-MGYQKKLRS[dM]TDKYRL-NH2 [CXCR4 i1 loop compound 173] the “IC50 (nM), calcium flux, CCRF-CEM” value was 97 nM.
For B6, the “IC50 (nM), calcium flux, CCRF-CEM” value was 200 nM.
In the case of Palmitoyl-MGYQK[dK]LRSMTDKYRL-NH2 [CXCR4 i1 loop compound 169], the “IC50 (nM), calcium flux, CCRF-CEM” value is reported as 88 nM.
In the case of Palmitoyl-MGYQKKLR[dS]MTDKYRL-NH2 [CXCR4 i1 loop compound 172], the “IC50 (nM), calcium flux, CCRF-CEM” value is reported as 90 nM.
For Palmitoyl-MGY[dQ]KKLRSMTDKYRL-NH2 [CXCR4 i1 loop compound 167], the “IC50 (nM), calcium flux, CCRF-CEM” value was 116 nM.
In the case of Palmitoyl-MG[dY]QKKLRSMTDKYRL-NH2 [CXCR4 i1 loop compound 166], the “IC50 (nM), calcium flux, CCRF-CEM” value is reported as 129 nM.
B7 was tested, and the “IC50 (nM), calcium flux, CCRF-CEM” value was 175 nM.
In the case of B8, the “IC50 (nM), calcium flux, CCRF-CEM” value is reported as 250 nM.
B1 was tested, and the “IC50 (nM), calcium flux, CCRF-CEM” value was 98 nM.

Biological target: T1, CXCR4 receptor
Test: cell-based or functional assay
Remark: another data set of the same source
In the case of B9, the “AUC (% of Vehicle), CHTX, CEM, 1.0 uM” value is reported as 77.5 % of Vehicle, the “Max (% of Vehicle), CHTX, CEM, 1.0 uM” value is reported as 92.1 % of Vehicle and the “Peak Ratio, CHTX, CEM, 1.0 uM” value is reported as 1.
With B10 the “AUC (% of Vehicle), CHTX, CEM, 1.0 uM” value was 34.2 % of Vehicle, the “Max (% of Vehicle), CHTX, CEM, 1.0 uM” value was 63.1 % of Vehicle and the “Peak Ratio, CHTX, CEM, 1.0 uM” value was 1.
With B11 the “AUC (% of Vehicle), CHTX, CEM, 1.0 uM” value was 65.3 % of Vehicle, the “Max (% of Vehicle), CHTX, CEM, 1.0 uM” value was 80.5 % of Vehicle and the “Peak Ratio, CHTX, CEM, 1.0 uM” value was 1.
